In patent US20150080295A1 (ZEALAND PHARMA A S, published 2015):
Numbered stars: 1 amine (or outer) side, 2 acyl side, 3 side chain; on linkers, the order of the positions; unused ones are H or OH. Square brackets hold non-standard residues; d marks the D form. Side chains are listed from the residue outwards. Ends that are not written are not given here. * marks the point of attachment. γGlu = O=C(O)[C@H](CCC(=O)[*:2])N[*:1]; Palmitoyl = CCCCCCCCCCCCCCCC(=O)*; Aib = CC(C)(N)C(=O)O

Legend:
[1] = molecular target: human glucagon-like peptide 1 receptor (human, UniProt P43220 24-463); test: cell-based or functional assay
human glucagon receptor = human glucagon receptor (human, UniProt P47871 26-477); test: cell-based or functional assay

human glucagon-like peptide 1 receptor, sequence (P43220 24-463): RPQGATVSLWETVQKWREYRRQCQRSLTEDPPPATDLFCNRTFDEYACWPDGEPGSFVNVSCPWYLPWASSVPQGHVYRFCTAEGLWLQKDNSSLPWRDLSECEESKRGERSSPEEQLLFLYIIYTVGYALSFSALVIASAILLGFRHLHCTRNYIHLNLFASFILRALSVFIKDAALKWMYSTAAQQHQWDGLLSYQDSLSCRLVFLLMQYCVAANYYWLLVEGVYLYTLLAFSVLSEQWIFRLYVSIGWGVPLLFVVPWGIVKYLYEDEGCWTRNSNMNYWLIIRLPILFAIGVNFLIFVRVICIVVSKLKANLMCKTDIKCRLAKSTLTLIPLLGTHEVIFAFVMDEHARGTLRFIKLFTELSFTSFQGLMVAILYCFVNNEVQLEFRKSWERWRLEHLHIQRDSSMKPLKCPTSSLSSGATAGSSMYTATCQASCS

Binder | GLP-1R EC50 (nM), cAMP formation in HEK293 cells expressing human GLP-1-R [1] [nM] | GLUR EC50 (nM), cAMP formation in HEK293 cells expressing human Glucagon-R (human glucagon receptor) [nM]
H-HSQGTFTSDYSKYLDSKRAHDFVEWLLRA-NH2 [L006-0170] | 0.5 | 0.79
H-HSQGTFTSDYSKYLDSRAAHDFVEWLLRA-NH2 [L006-0169] | 0.99 | 152
HSQGTFTSDYSKYLDSK([γGlu-Palmitoyl])AAHDFVEWLLRA-NH2 [ZP2872] | 0.103 | 0.085
H[dS]QGTFTSDYSKYLDSKAAHDFVEWLLRA-NH2 [ZP2866] | 0.09 | 0.11
H-HSQGTFTSDYSKYLDSKAAHDFVEWLLRA-NH2 [ZP2669] | 0.05 | 0.05
H-HSQGTFTSDYSKYLDSLAAQDFVQWLLNT-NH2 [ZP2753] | 0.04 | 0.08
H-HSQGTFTSDYSKYLDSKAAHDFVEWLLRA-OH [L006-0296] | 0.14 | 0.12
H-HSQGTFTSDYSKYLDKKAAHDFVEWLLRA-NH2 [L006-0239] | 0.98 | 1.05
H-HSQGTFTSDYSKYLDSKAAQDFVQWLMNT-NH2 [ZP2667] | 0.02 | 0.07
H-HSQGTFTSDYSKYLDSKAAHDFVEWLMNT-NH2 [L006-0176] | 0.44 | 0.57
H-HSQGTFTSDYSKYLDSKAAHDFVKWLLRA-NH2 [L006-0212] | 0.76 | 1.23
H-HSQGTFTSDYSKYLDSKAAQDFVEWLLRA-NH2 [L006-0171] | 0.37 | 0.78
H-HSQGTFTSDYSKYLDSKAAKDFVEWLLRA-NH2 [L006-0208] | 0.57 | 0.55
H-HSQGTFTSDYSKYLDSKAARDFVRWLKLA-NH2 [ZP2668] | 0.08 | 0.8
H[Aib]QGTFTSDYSKYLDSKAAHDFVEWLLRA-NH2 [ZP2867] | 0.08 | 0.06
H-HSQGTFTSDYSKYLDSKAAHDFVQWLLRA-NH2 [L006-0172] | 0.21 | 0.37
